Experimental findings from publication PMC10647171 are described below.

Holding throughout (test): potentiometry
The target of data set [1] is Cterm31 (position 31, TTGDCH-----). The settings on record: 298 K; 0.1 M NaClO4; none (4 mM HClO4, 0.1 M NaClO4); free peptide, no metal, thiols reduced (argon atmosphere).
Data set [2] deals with His31 (position 31, TTGDCH-----). The settings on record: 298 K, 0.1 M NaClO4, none (4 mM HClO4, 0.1 M NaClO4).
The next data set addresses Glu10 (position 10, …). The settings on record: 298 K, 0.1 M NaClO4, none (4 mM HClO4, 0.1 M NaClO4).
Data set [3] concerns the target Cys30 (position 30, STTGDCH----). The settings on record: 298 K; 0.1 M NaClO4; none (4 mM HClO4, 0.1 M NaClO4); Zn(II)-bound mononuclear 1:1 complex.
In data set [4] the target is Asp29 (UniProt position 771, ASTTGDCH---). The settings on record: 298 K; 0.1 M NaClO4; none (4 mM HClO4, 0.1 M NaClO4); free peptide, no metal, thiols reduced (argon atmosphere).
Data set [5] addresses Cterm31 (UniProt position 773, TTGDCH-----). The settings on record: 298 K; 0.1 M NaClO4; none (4 mM HClO4, 0.1 M NaClO4); free peptide, no metal, thiols reduced (argon atmosphere).
The target of data set [6] is His31 (UniProt position 773, TTGDCH-----). The settings on record: 298 K, 0.1 M NaClO4, none (4 mM HClO4, 0.1 M NaClO4).
Data set [7] has as its target Cys30 (UniProt position 772, STTGDCH----). The settings on record: 298 K; 0.1 M NaClO4; none (4 mM HClO4, 0.1 M NaClO4); Zn(II)-bound mononuclear 1:1 complex.
[8] abbreviates: Fe(II)-bound mononuclear 1:1 complex, anaerobic.
[9] abbreviates: Mn(II)-bound mononuclear 1:1 complex.
Where [10] appears, read: Zn(II)-bound mononuclear 1:1 complex.
[11] abbreviates: free peptide, no metal, thiols reduced (argon atmosphere).

B1: FeoB C-terminal peptide P2 (Ac-RRARSRVDIELLATRKSVSSCCAASTTGDCH, FeoB 743-773) (Escherichia coli K12) (peptide)
chain: RRARSRVDIELLATRKSVSSCCAASTTGDCH
For B1, the pKa (as a rule, the pH at which an ionisable group is half protonated) in data set [1] is recorded as 2.15; in data set [2] (setting [8]) it was 4.90; in data set [2] (setting [9]) it was 5.20; in data set [2] (setting [10]) it was 5.74; in data set [2] (setting [11]), 6.73; with Glu10 (position 10, …) (setting [8]), 4.13. Moreover, the pKa was determined as 3.64 with Glu10 (position 10, …) (setting [9]); 4.38 with Glu10 (position 10, …) (setting [11]); 7.75 in data set [3].

B2: FeoB C-terminal peptide P1 (Ac-CCAASTTGDCH, FeoB 763-773) (Escherichia coli K12) (peptide)
chain: CCAASTTGDCH
For the protein B2, the pKa in data set [4] stood at 4.19; in data set [5], 3.37; in data set [6] (setting [8]), 4.68; in data set [6] (setting [9]), 6.46; in data set [6] (setting [10]), 5.91; in data set [6] (setting [11]) it was 6.96. The same protein registered a pKa in data set [7] of 7.27.
